Laboratory results as given in publication PMC4265764 (2014).
Numbering of substitutions follows the chain as printed.

Legend:
superfolder GFP (sfGFP) = superfolder GFP (sfGFP) (UniProt P42212 = GFP, biotin (in-vivo biotinylated, in the ELISA)); test: FP
[1] = molecular target: T1, Green Fluorescent Protein (GFP) (UniProt P42212 1-238 = GFP, biotin on the avi-tag (in-vivo biotinylation)); test: SPR
[2] = molecular target: T1, Green Fluorescent Protein (GFP); test: SPR; remark: listed apart in the source
[3] = molecular target: T1, Green Fluorescent Protein (GFP); test: FP; PBS with 0.03% BSA
[4] = molecular target: T1, Green Fluorescent Protein (GFP); test: FP; PBS with 0.005% Tween-20
[5] = molecular target: T1, Green Fluorescent Protein (GFP); test: FP

B1: DARPin 3G61 (designed binder)
chain: MRGSHHHHHHGSDLGKKLLEAARAGQDDEVRILMANGADVNALDEVGWTPLHLAAWGHLEIVEVLLKNGADVNAADIDGYTPLHLAAFSGHLEIVEVLLKYGADVNADDQAGFTPLHLAAIFGHLEIVEVLLKNGADVNAQDKFGKTAFDISIDNGNEDLAEILQKLN
Which Kd (superfolder GFP (sfGFP)) does the source give for B1 here?
The Kd was 96 nM.

What about the koff [1] of the same binder?
Its koff is 0.000797 s⁻¹.

What about the Kd [2] of the same binder?
Its Kd is 1.1 nM.

And the Kd [3]?
The Kd was 76 nM.

What about the Kd [4] of the same binder?
Its Kd is less than 5 nM.

B2: DARPin 3G124 (designed binder)
chain: DLGKKLLEAARAGQDDEVRILMANGADVNAADDVGVTPLHLAAQRGHLEIVEVLLKYGADVNAADLWGQTPLHLAATAGHLEIVEVLLKNGADVNARDNIGHTPLHLAAWAGHLEIVEVLLKYGADVNAQDKFGKTAFDISIDNGNEDLAEILQ
What does the source list for B2?
Kd (superfolder GFP (sfGFP)): 22 nM; Kd [5]: < 5 nM; koff [1]: 0.000228 s⁻¹; Kd [2]: 0.36 nM

B3: DARPin 3G86.32 (designed binder)
chain: MRGSHHHHHHGSDLGKKLLEAARAGQDDEVRILMANGADVNALDRFGLTPLHLAAQRGHLEIVEVLLKCGADVNAADLWGQTPLHLAATAGHLEIVEVLLKYGADVNALDLIGKTPLHLTAIDGHLEIVEVLLKHGADVNAQDKFGKTAFDISIDNGNEDLAEILQKLN
With B3 as the binder, how does the Kd (superfolder GFP (sfGFP)) read?
Its Kd is 5.3 nM.

And the Kd [5]?
Its Kd is less than 5 nM.

And the koff [1]?
Its koff is 0.00022 s⁻¹.

B4: DARPin 3G86.1 (designed binder)
chain: B3 chain with Y102N, L109R, L111N, K114H, T120A, I122W, D123A
How did the Kd (superfolder GFP (sfGFP)) turn out when B4 was run?
The Kd was 29 nM.

What about the Kd [5] of the same binder?
The Kd was less than 5 nM.

What about the koff [1] of the same binder?
Its koff is 0.000369 s⁻¹.

What about the Kd [2] of the same binder?
Its Kd is 0.32 nM.
